Measurements as given in PMC7677135 (Biophysical Journal, 2020).

Target: T1, PDK1 50–359 [Y288G,Q292A] (human, UniProt O15530 50-359, Y288G | Q292A)
T1 sequence (looked up): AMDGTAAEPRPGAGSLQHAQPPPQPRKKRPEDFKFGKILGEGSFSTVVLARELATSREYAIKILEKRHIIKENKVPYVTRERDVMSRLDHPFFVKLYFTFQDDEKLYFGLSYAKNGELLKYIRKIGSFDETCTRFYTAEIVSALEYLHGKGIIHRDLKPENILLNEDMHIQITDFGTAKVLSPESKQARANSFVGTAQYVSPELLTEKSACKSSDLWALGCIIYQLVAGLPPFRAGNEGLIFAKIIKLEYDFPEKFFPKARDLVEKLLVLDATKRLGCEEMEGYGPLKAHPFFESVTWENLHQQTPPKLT
Assay: HDX-MS

- binding result: binds
Binder: REPRILSEEEQEMFRDFDYIADWC [PIFtide]
